Laboratory results as given in article PMC8639797 (Nature, 2021).

Target: T1, trx-ALKAL2-AD^RC (K94E/K96E/K99E/H100E) (human, UniProt Q6UX46 77-152, K94E | K96E | K99E | H100E)
T1 sequence (looked up): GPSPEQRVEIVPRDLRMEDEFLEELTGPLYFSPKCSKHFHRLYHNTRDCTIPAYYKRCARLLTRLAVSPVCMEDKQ
Test: BLI

- binding result: binds
B1: site-specifically biotinylated ALK-ECR^ABR (from Fc-ALKavi) (domain or fragment, human)
chain: QTPIFDPTVHWLFTTCGASGPHGPTQAQCNNAYQNSNLSVEVGSEGPLKGIQIWKVPATDTYSISGYGAAGGKGGKNTMMRSHGVSVLGIFNLEKDDMLYILVGQQGEDACPSTNQLIQKVCIGENNVIEEEIRVNRSVHEWAGGGGGGGGATYVFKMKDGVPVPLIIAAGGGGRAYGAKTDTFHPERLENNSSVLGLNGNSGAAGGGGGWNDNTSLLWAGKSLQEGATGGHSCPQAMKKWGWETRGGFGGGGGGCSSGGGGGGYIGGNAASNNDPEMDGEDGVSFISPLGILYTPALKVMEGHGEVNIKHYLNCSHCEVDECHMDPESHKVICFCDHGTVLAEDGVSCIVSP
modifications: biotin on the C-terminal biotin acceptor peptide (co-expressed BirA)
